We go through two molecules from patent publication WO2015031626A1 (dated 2015).

For assay [1], the target named is T1, recombinant human scMet antigen, cMet (25-932)-HIEGRMD-6His (human, UniProt P08581 25-932).
T1 construct: this entry is used for those rows too; also called soluble cMet; scMet B Sample
In words: … chemiluminescent microparticle sandwich immunoassay on recombinant scMet.

In assay [2] the target is T2, free cMet (SEQ ID NO: 33) bound to Alexa-488 dye (human, UniProt P08581 25-932, Alexa-488 dye (site not stated)).
T2 construct: also called cMet-A488
In words: FRET binding titration in solution.

Assay [3] has as its target T1, recombinant human scMet antigen, cMet …. Briefly: … scMet B sandwich immunoassay, 224D10 F(ab')2 as acridinium conjugate.

T1 sequence (P08581 other isoform, or with tags, fused parts or gaps limits assumed): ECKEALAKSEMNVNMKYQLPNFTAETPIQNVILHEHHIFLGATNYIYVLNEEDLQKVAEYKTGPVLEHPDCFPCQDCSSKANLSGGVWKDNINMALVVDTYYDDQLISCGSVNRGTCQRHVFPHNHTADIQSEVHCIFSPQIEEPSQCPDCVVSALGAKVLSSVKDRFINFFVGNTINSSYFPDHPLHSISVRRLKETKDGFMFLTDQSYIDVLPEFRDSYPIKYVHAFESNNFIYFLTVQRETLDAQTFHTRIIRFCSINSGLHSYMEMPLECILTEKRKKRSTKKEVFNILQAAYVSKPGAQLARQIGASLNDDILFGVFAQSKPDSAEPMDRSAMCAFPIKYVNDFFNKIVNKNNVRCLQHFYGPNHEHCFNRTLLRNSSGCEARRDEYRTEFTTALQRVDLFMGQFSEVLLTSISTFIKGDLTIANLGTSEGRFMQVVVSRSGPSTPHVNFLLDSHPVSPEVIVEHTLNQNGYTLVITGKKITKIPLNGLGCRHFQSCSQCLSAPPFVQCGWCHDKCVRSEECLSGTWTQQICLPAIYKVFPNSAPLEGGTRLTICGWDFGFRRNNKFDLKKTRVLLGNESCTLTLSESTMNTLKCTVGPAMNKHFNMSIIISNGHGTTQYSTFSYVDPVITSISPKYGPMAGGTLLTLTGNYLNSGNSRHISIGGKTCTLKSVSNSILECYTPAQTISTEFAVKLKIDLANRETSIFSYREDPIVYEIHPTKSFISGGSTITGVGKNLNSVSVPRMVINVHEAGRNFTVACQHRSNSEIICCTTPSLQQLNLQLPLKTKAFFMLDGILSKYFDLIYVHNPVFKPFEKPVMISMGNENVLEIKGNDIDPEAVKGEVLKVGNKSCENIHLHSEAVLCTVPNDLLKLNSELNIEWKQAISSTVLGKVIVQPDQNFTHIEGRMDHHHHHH
T2 sequence (P08581 other isoform, or with tags, fused parts or gaps limits assumed): as above

B1: anti-cMet 11E1 monoclonal antibody (hybridoma CNCM I-3724) (antibody, V domains shown)
VH: QVQLQQSGAELAKPGASVKMSCKASGYTFTSYWMNWVKQRPGQGLEWIGYINPTTGSTDYNQKLKDKATLTADKSSNTAYMQLSSLTSEDSAVYYCAIGGYGSWFAYWGQGTLVTVSA
VL: QIVLTQSPAIMSASPGEKVTLTCSASSSVSSTYLYWYQQKPGSSPKLWIYTTSILASGVPARFSGSGSGTSYSLTISSMETEDAASYFCHQWSSYPFTFGSGTKLDIK
notes: summary and claims call them variable heavy and variable light domains; Hybridoma monoclonal, coated on magnetic microparticles (capture) or labelled with acridinium (conjugate); also called m11E1; mAb 11E1
Regarding B1, the binding result in assay [1] and in assay [2] was “binds” throughout.

B2: anti-cMet 224D10 F(ab')2 fragment antibody (antibody, V domains shown)
VH: DLQLQESGPGLVKPSQSLSLTCSVTGYSITSAYFWSWIRQFPGNKLEWMGFINYDGTNNYNPSLKNRISITRDTSKNQFFLRLNSVTTDDTATYYCTRDRTFAYWGQGTLVTVSA
VL: DIVLTQSPATLSVTPGDRVSLSCRASQRIYNYLHWYQQKSHESPRLLIKYASQSISGIPSRFSGSGSGTDFILTINSVETEDFGMYFCQQSNSWPLTFGAGTKLELRR
modifications: acridinium conjugate (site not stated)
notes: also called 224D10 F(ab') 2 fragment conjugate
Regarding B2, in assay [3], the binding result is “binds”.
